Patent US20190218304A1 (INNATE PHARMA, published 2019)

How the values were obtained:
[1] = biological target: T1, human CD39 expressed on cells (human, UniProt P49961 1-510); test: flow cytometry titration on CHO cells expressing human CD39, labeled secondary antibody [panel CHO-huCD39]
T1 construct: On CHO transfectants, HEK-293T transfectants (wild type), Ramos lymphoma cells or monocyte-derived dendritic cells, as named under assay; also called huCD39; CHO-huCD39
T1 sequence: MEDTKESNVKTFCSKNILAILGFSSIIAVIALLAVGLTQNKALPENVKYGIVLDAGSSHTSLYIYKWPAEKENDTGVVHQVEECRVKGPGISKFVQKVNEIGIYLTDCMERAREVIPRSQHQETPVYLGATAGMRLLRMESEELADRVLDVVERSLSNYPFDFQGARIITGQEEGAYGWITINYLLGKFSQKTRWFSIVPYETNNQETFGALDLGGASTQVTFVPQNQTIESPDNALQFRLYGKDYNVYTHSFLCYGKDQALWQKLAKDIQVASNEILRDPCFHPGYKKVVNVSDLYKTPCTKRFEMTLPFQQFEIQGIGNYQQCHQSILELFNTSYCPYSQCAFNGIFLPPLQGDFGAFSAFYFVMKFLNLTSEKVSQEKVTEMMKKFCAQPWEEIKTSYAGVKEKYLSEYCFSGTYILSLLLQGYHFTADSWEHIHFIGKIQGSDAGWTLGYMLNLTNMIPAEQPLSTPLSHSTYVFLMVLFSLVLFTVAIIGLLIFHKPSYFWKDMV
Method: Cells were incubated with various concentration of unlabeled anti-CD39 antibody from 30 μg/ml to 5×10⁻⁴ μg/ml, for 30 minutes at 4° C. After washes, cells were incubated with Goat anti-mouse H+L labeled secondary antibody for 30 min at 4° C.

[2] = biological target: T2, CD39 mutant 19 (human, UniProt P49961 1-510); test: flow cytometry on Hek-293T cells transfected with CD39 mutant 19 [panel M19]
T2 construct: Expressed on transfected Hek-293T cells; also called M19
T2 chain: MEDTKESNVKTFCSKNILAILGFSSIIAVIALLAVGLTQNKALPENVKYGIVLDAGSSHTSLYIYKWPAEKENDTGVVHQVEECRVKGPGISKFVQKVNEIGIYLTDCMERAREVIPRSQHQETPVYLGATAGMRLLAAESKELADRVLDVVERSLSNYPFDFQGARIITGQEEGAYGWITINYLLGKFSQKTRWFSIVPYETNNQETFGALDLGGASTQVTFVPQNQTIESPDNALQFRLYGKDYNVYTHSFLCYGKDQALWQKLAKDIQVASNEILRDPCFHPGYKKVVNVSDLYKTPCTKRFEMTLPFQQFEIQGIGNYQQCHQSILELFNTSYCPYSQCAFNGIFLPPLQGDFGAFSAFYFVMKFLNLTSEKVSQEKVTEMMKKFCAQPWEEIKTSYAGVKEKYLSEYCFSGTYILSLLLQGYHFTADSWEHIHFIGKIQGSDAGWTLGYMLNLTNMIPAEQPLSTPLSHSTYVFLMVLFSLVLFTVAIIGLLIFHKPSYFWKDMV

[3] = biological target: T3, Human CD39-L2 (human, UniProt O75354 61-484, limits assumed); test: ELISA on coated recombinant human CD39-L2 [panel huCD39 L2]
T3 construct: Recombinant protein coated in ELISA; also called NTPDase6; ENTPD6
T3 sequence: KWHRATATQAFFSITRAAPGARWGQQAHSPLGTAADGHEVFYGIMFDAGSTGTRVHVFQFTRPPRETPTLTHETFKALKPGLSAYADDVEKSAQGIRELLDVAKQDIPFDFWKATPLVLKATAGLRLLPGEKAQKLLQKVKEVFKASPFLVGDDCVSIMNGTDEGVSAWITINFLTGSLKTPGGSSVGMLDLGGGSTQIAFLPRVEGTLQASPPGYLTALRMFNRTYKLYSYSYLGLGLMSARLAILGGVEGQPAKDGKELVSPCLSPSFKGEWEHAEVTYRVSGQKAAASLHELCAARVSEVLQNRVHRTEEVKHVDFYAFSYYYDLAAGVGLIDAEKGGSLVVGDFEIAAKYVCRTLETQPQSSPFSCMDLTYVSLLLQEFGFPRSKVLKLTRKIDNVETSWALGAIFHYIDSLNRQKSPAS
Method: Wells were washed in TBS Tween 20, and further saturated 2H at RT in TBS Blocking buffer. Dose range concentration of primary antibody was incubated in TBS blocking buffer for 2 h at RT. Wells were washed in TBS Tween 20. […] Optical density was measured on Enspire™ at OD=450.

EC50 (read off the curve) [1]: ~0.2 µg/mL
binding result [2]: no binding
binding result [3]: no binding
B1: antibody I-394 (antibody, human IgG1, kappa, V domains shown)
VH: EVQLQQSGPELVKPGASVKMSCKASGYTFTDYNMHWVKQSHGRTLEWIGYIVPLNGGSTFNQKFKGRATLTVNTSSRTAYMELRSLTSEDSAAYYCARGGTRFAYWGQGTLVTVSA
VL: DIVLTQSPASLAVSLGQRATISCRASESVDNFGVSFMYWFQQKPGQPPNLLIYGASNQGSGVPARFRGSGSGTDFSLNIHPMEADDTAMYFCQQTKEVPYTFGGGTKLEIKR
notes: The hybridoma-derived mouse form was used in early screening
